For seven molecules, Kd, binding result and binding signal results are on record in PMC7026264, “Crystal structures of N-terminal WRKY transcription factors and DNA complexes”.

The target of data set [1] is T1, AtWRKY1-N (Arabidopsis, UniProt Q9SI37 108-169). Put plainly: ITC; ITC: 25 mM HEPES pH 7.0, 100 mM NaCl, 20 C, 0.25 mM protein into 0.026 mM DNA; EMSA: 25 mM HEPES pH 7.0, 100 mM NaCl, 5% glycerol, 6 pmol DNA in 6 ul, 4 C 20 min. The conditions noted are these: protein: recombinant; tags: C-terminal His; blunt. A general note: In ITC the heat of successive injections is recorded.
T1 sequence (Q9SI37 108-169): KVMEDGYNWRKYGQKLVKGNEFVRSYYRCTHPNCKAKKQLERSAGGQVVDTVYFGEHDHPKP

The target in data set [2] is AtWRKY1-N K144A (Arabidopsis, UniProt Q9SI37 108-169, K144A). Put plainly: EMSA; ITC: 25 mM HEPES pH 7.0, 100 mM NaCl, 20 C, 0.25 mM protein into 0.026 mM DNA; EMSA: 25 mM HEPES pH 7.0, 100 mM NaCl, 5% glycerol, 6 pmol DNA in 6 ul, 4 C 20 min. Conditions: protein: recombinant; tags: C-terminal His; label: 5' Cy3 on strand 1; blunt. On the technique in general: In EMSA bound probe runs differently from free probe, usually more slowly.
Sequence of AtWRKY1-N K144A (Q9SI37 108-169 K144A): as the sequence (Q9SI37 108-169) above, with K37A counted along it

For data set [3], the target named is AtWRKY1-N K118A (Arabidopsis, UniProt Q9SI37 108-169, K118A). The description is as above. The conditions noted are these: protein: recombinant; tags: C-terminal His; label: 5' Cy3 on strand 1; blunt.
Sequence of AtWRKY1-N K118A (Q9SI37 108-169 K118A): as the sequence (Q9SI37 108-169) above, with K11A counted along it
The target of data set [4] is AtWRKY1-N R117A (Arabidopsis, UniProt Q9SI37 108-169, R117A). Described as above. Conditions: protein: recombinant; tags: C-terminal His; label: 5' Cy3 on strand 1; blunt.
Sequence of AtWRKY1-N R117A (Q9SI37 108-169 R117A): as the sequence (Q9SI37 108-169) above, with R10A counted along it
The target in data set [5] is AtWRKY1-N K122A (Arabidopsis, UniProt Q9SI37 108-169, K122A). The description is as above. Conditions: protein: recombinant; tags: C-terminal His; label: 5' Cy3 on strand 1; blunt.
Sequence of AtWRKY1-N K122A (Q9SI37 108-169 K122A): as the sequence (Q9SI37 108-169) above, with K15A counted along it
Data set [6] addresses AtWRKY1-N Y133A (Arabidopsis, UniProt Q9SI37 108-169, Y133A). The data set is described as above. Conditions: protein: recombinant; tags: C-terminal His; label: 5' Cy3 on strand 1; blunt.
Data set [7] has as its target AtWRKY1-N Y119A (Arabidopsis, UniProt Q9SI37 108-169, Y119A). Described as above. The conditions noted are these: protein: recombinant; tags: C-terminal His; label: 5' Cy3 on strand 1; blunt.
Data set [8] addresses AtWRKY1-N R135A (Arabidopsis, UniProt Q9SI37 108-169, R135A). The description is as above. Conditions: protein: recombinant; tags: C-terminal His; label: 5' Cy3 on strand 1; blunt.
For data set [9], the target named is AtWRKY1-N Q121A (Arabidopsis, UniProt Q9SI37 108-169, Q121A). The description is as above. The conditions noted are these: protein: recombinant; tags: C-terminal His; label: 5' Cy3 on strand 1; blunt.
Sequence of AtWRKY1-N Q121A (Q9SI37 108-169 Q121A): as the sequence (Q9SI37 108-169) above, with Q14A counted along it
Data set [10] deals with T1, AtWRKY1-N. Put plainly: ITC; ITC: 25 mM HEPES pH 7.0, 100 mM NaCl, 20 C, 0.25 mM protein into 0.026 mM DNA; EMSA: 25 mM HEPES pH 7.0, 100 mM NaCl, 5% glycerol, 6 pmol DNA in 6 ul, 4 C 20 min. The conditions noted are these: protein: recombinant; tags: C-terminal His; blunt. This is another data set of the same source.
Data set [11] concerns the target T1, AtWRKY1-N. The data set is described as above. The conditions noted are these: protein: recombinant; tags: C-terminal His; blunt. The source holds these as a separate data set.
The target of data set [12] is AtWRKY2-N (Arabidopsis, UniProt Q9FG77 270-332). Put plainly: crystal structure; 2.4 A; zinc finger; ITC: 25 mM HEPES pH 7.0, 100 mM NaCl, 20 C, 0.25 mM protein into 0.026 mM DNA; EMSA: 25 mM HEPES pH 7.0, 100 mM NaCl, 5% glycerol, 6 pmol DNA in 6 ul, 4 C 20 min. The conditions noted are these: protein: recombinant; tags: C-terminal His; 5' overhang 1 nt at each end.
Sequence of AtWRKY2-N (Q9FG77 270-332): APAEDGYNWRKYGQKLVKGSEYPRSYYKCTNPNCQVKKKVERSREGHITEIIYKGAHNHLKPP
Data set [13] deals with T1, AtWRKY1-N. Put plainly: crystal structure; 3.0 A; zinc finger; ITC: 25 mM HEPES pH 7.0, 100 mM NaCl, 20 C, 0.25 mM protein into 0.026 mM DNA; EMSA: 25 mM HEPES pH 7.0, 100 mM NaCl, 5% glycerol, 6 pmol DNA in 6 ul, 4 C 20 min. Conditions: protein: recombinant; tags: C-terminal His; 5' overhang 1 nt at each end.
Data set [14] addresses AtWRKY33-N (Arabidopsis, UniProt Q8S8P5 185-242). The data set is described as above. Conditions: protein: recombinant; tags: C-terminal His; 5' overhang 1 nt at each end.
Data set [15] deals with AtWRKY1 101-339 (Arabidopsis, UniProt Q9SI37-2 101-339). Put plainly: ITC; N=0.5, two DNA per protein; 0.11 mM protein into 0.026 mM DNA; ITC: 25 mM HEPES pH 7.0, 100 mM NaCl, 20 C, 0.25 mM protein into 0.026 mM DNA; EMSA: 25 mM HEPES pH 7.0, 100 mM NaCl, 5% glycerol, 6 pmol DNA in 6 ul, 4 C 20 min. The conditions noted are these: protein: recombinant; tags: C-terminal His; blunt.
Sequence of AtWRKY1 101-339 (Q9SI37 other isoform, or with tags, fused parts or gaps): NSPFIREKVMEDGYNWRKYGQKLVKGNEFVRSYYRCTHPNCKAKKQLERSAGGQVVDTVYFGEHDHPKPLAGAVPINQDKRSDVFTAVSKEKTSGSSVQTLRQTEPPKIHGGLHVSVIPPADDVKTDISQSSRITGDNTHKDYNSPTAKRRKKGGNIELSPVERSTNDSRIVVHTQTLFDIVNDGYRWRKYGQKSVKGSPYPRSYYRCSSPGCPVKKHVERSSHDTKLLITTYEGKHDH

Data set [16] deals with AtWRKY1-C (Arabidopsis, UniProt Q9SI37 301-366). Put plainly: ITC; ITC: 25 mM HEPES pH 7.0, 100 mM NaCl, 20 C, 0.25 mM protein into 0.026 mM DNA; EMSA: 25 mM HEPES pH 7.0, 100 mM NaCl, 5% glycerol, 6 pmol DNA in 6 ul, 4 C 20 min. The conditions noted are these: protein: recombinant; tags: C-terminal His; blunt.
Sequence of AtWRKY1-C (Q9SI37 301-366): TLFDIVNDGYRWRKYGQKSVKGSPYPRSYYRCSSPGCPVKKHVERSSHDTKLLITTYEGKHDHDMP

Sequence of AtWRKY1-N R135A (Q9SI37 108-169 R135A): as the sequence (Q9SI37 108-169) above, with R28A counted along it
Sequence of AtWRKY33-N (Q8S8P5 185-242): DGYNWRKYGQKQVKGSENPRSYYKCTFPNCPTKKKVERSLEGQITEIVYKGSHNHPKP
Sequence of AtWRKY1-N Y119A (Q9SI37 108-169 Y119A): as the sequence (Q9SI37 108-169) above, with Y12A counted along it
Sequence of AtWRKY1-N Y133A (Q9SI37 108-169 Y133A): as the sequence (Q9SI37 108-169) above, with Y26A counted along it

B1: G7'C9' to A7'A9' (dsDNA)
DNA 1: CGCCTTTTATCAGCGC
DNA 2: GCGCTGATAAAAGGCG
Broadly, the Kd is a measure of binding affinity in units of concentration. On to B1, for which the Kd in [1] turned out to be 7.6 µM.

B2: W-box DNA for EMSA (dsDNA)
DNA 1: CGCCTTTGACCAGCGC
DNA 2: GCGCTGGTCAAAGGCG
B2: the binding result in [2] was “no binding”; in [3], “binds”; in data set [4], “binds”; in [5], “no binding”; in data set [6], “no binding”; in [7], “binds”. Moreover, the binding result in data set [8] and in data set [9] was “no binding” each time.

B3: G6' to T6' (dsDNA)
DNA 1: GCGCTTGTCAAAGGCG
DNA 2: CGCCTTTGACAAGCGC
With B3, in [10], the binding signal is 2.5 fold decrease in affinity vs W-box.

B4: T6T7 to C6G7 (dsDNA)
DNA 1: CGCCTCGGACCAGCGC
DNA 2: GCGCTGGTCCGAGGCG
As to B4, the binding signal in [11] was 4.5 fold decrease in affinity vs W-box.

B5: T8' to A8' (dsDNA)
DNA 1: CGCCTTTGTCCAGCGC
DNA 2: GCGCTGGACAAAGGCG
Consider B5, for which the binding signal in data set [11] was 12 fold decrease in affinity vs W-box.

B6: W-box DNA for crystallization (15 bp) (dsDNA)
DNA 1: AGCCTTTGACCAGCG
DNA 2: TCGCTGGTCAAAGGC
In the case of B6, the binding result in data set [12], in data set [13] and in [14] was “binds” in each case.

B7: W-box DNA for ITC (dsDNA)
DNA 1: CGCCTTTGACCAGCGC
DNA 2: GCGCTGGTCAAAGGCG
For the molecule B7, the values for the Kd in data set [15], in [1] and in data set [16] were 500 nM, approximately 0.1 µM and 1300 nM, respectively.
